US20080176263

T1: TNO211 peptide (DABCYL-GABA-Pro-Gln-Gly-Leu-Glu(EDANS)-Ala-Lys-NH2)
T1 chain: PQGLEAK


How the values were obtained:
[1] = molecular target: T1, TNO211 peptide …

Protein	cleavage of the dye-labelled immobilized substrate (color generation) (RH substrate)	visible color from cleavage of the dye-labelled immobilized substrate (Substrate AA)	protease activity (fluorescence from cleavage of substrate TNO211), relative to pronase [1]
proteinase K (protein) AAQTNAPWGLARISSTSPGTSTYYYDESAGQGSCVYVIDTGIEASHPEFEGRAQMVKTYYYSSRDGNGHGTHCAGTVGSRTYGVAKKTQLFGVKVLDDNGSGQYSTIIAGMDFVASDKNNRNCPKGVVASLSLGGGYSSSVNSAAARLQSSGVMVAVAAGNNNADARNYSPASEPSVCTVGASDRYDRRSSFSNYGSVLDIFGPGTSILSTWIGGSTRSISGTSMATPHVAGLAAYLMTLGKTTAASACRYIADTANKGDLSNIPFGTVNLLAYNNYQA	none of the enzyme preparations were successful in cleaving the RH substrate	AA substrate reacted with pronase and proteinase K did produce a visible color within 2.5 h at 37 °C	
MMP-2 (protein) YNFFPRKPKWDKNQITYRIIGYTPDLDPETVDDAFARAFQVWSDVTPLRFSRIHDGEADIMINFGRWEHGDGYPFDGKDGLLAHAFAPGTGVGGDSHFDDDELWTLGEGQVVRVKYGNADGEYCKFPFLFNGKEYNSCTDTGRSDGFLWCSTTYNFEKDGKYGFCPHEALFTMGGNAEGQPCKFPFRFQGTSYDSCTTEGRTDGYRWCGTTEDYDRDKKYGFCPETAMSTVGGNSEGAPCVFPFTFLGNKYESCTSAGRSDGKMWCATTANYDDDRKWGFCPDQGYSLFLVAAHEFGHAMGLEHSQDPGALMAPIYTYTKNFRLSQDDIKGIQELYGASPDIDLGTGPTPTLGPVTPEICKQDIVFDGIAQIRGEIFFFKDRFIWRTVTPRDKPMGPLLVATFWPELPEKIDAVYEAPQEEKAVFFAGNEYWIYSASTLERGYPKPLTSLGLPPDVQRVDAAFNWSKNKKTYIFAGDKFWRYNEVKKKMDPGFPKLIADAWNAIPDNLDAVVDLQGGGHSYFFKGAYYLKLENQSLKSVKFGSIKSDWLGC			17±4%
